Experimental findings from publication PMC7392888 are described below.

For this data set, the system named is O=C(Cc1cccs1)N[C@@H]1C(=O)N2C(C(=O)O)=C(/C=C/c3ccc([N+](=O)[O-])cc3[N+](=O)[O-])CS[C@H]12. Briefly: purified protein. The note with it: Zn2+ enzyme; steady-state buffer and pH not given here; King-Altman value from pre-steady-state data listed separately.

The Km is the concentration of substrate that gives half-maximal velocity. By kcat is commonly meant the maximal rate divided by the concentration of active sites.

Regarding “MIM-1 (Novosphingobium pentaromativorans US6-1)”, the Km came out at 41 ± 10 µM and the kcat stood at 17 ± 4 s⁻¹.

“SAM-1 (Simiduia agarivorans SA1 = DSM 21679)”: the Km was 20 ± 3 µM and the kcat is 10 ± 5 s⁻¹.
